In patent publication US20260263607A1, “INHIBITION OF MYC USING HIGH-DENSITY BRUSH POLYMERS” (Northwestern University, priority 2022, published 2026):
Ends that are not written are not given here. norbornene = norbornene on aminohexanoic acid N-terminal cap, polymerised by ROMP; Ahx = NCCCCCC(=O)O

How the values were obtained:
[1] = target: T1, MYC T58A (Homo sapiens, UniProt P01106, T73A); experiment: Western blot of MYC T58A in PC-3 MYC^T58A cells; type: cell-based; conditions: 6 h; 2.5 and 5 μM HYDRAC, FIG. 31C
T1 construct: expressed in transfected cells
T1 sequence (P01106 16-454 T73A): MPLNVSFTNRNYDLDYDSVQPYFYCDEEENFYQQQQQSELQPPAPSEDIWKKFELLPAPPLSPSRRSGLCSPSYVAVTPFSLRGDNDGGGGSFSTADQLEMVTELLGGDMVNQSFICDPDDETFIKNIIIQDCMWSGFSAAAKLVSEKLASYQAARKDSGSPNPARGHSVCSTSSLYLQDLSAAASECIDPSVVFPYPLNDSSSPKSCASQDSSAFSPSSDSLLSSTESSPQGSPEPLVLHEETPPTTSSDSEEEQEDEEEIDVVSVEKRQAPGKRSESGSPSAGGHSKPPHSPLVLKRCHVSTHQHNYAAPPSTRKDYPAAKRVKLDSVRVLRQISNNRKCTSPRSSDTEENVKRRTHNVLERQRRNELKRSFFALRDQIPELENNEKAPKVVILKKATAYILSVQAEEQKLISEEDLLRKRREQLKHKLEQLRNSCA
Protocol: Western BlotAnalysis: Cells were lysed in RIPA (Sigma) lysis buffer containing 1×Halt™ Protease and Phosphatase Inhibitor Cocktail (ThermoFisher). Protein concentration was measured by Bio-Rad Bradford reagent. Protein samples were prepared by addition of 4×Laemmli Sample buffer (Bio-Rad) and 2-mercaptoethanol (Bio-Rad) and resolved on 4-12% SDS-PAGE (Sodium dodecyl sulfate-polyacrylamide) gels, which were subsequently transferred to PVDF membranes (Bio-Rad) using Trans-Blot Turbo transfer buffer (Bio-Rad) and a Trans-Blot Turbo Transfer System (Bio-Rad). Membranes were blocked for 1 h at room temperature with 5% blotting-grade blocker non-fat dry milk (Bio-Rad), followed by overnight 4° C. incubation with the appropriate primary antibody and 1 h room temperature incubation with an anti-rabbit or anti-mouse IgG (H+L)-HRP conjugate (Bio-Rad) secondary antibody. Blots were imaged using Supersignal West Femto Maximum Sensitivity Substrate detection system (Thermo) and the ChemiDoc Imaging System (Bio-Rad). The following primary antibodies were used: c-Myc (Y69) (Abcam #ab32072), Streptavidin-HRP (PerkinElmer NEL750), GAPDH (Cell Signaling #3683) and Actin (Cell Signaling #5125). Quantification analyses were performed by Biorad ChemiDoc Imager and Bio-Rad Image Lab software. […]

[2] = test system: PC-3 prostate cancer cells; experiment: PC-3 cell viability / toxicity (CellTiter-Glo); type: cell-based; conditions: PC-3, 72 hours treatment, FIG. 2D; read-out: IC50 (concentration of peptide which exhibited 50% cell viability for PC-3)
Protocol: (§1) Cell Culture: PC-3, PC-12, A549 cells were obtained from ATCC; Mouse MycCaP cells were the kind gift of Charles Sawyers (Memorial Sloan-Kettering Cancer Centre). All cells were authenticated and tested as mycoplasma-free. PC-3 and A549 cells were grown in F12K (Gibco) medium; MycCaP cells in DMEM medium (Gibco), all supplemented with 10% heat-inactivated fetal bovine serum (FBS, Gibco). PC-12 cells were grown in F-12K medium (ATCC) with 5% heat-inactivated FBS and 10% heat-inactivated horse serum (Thermo). All cells were cultured in 1% Penicillin-Streptomycin (10,000U/ml, Life Technologies) and 5% CO2 in a humidified incubator at 37° C.
(§2) Cell Proliferation Assays: Cell viability was estimated using the CellTiter-Glo® Luminescent Cell Viability Assay (Promega). […] After 3 to 5 days following the treatment, CellTiter-Glo reagent was added mixed 1:1 vol/vol with fresh media, plates incubated for 10 minutes on a shaking rotator followed by 10 minutes without shaking at room temperature (protected from light using aluminum foil) and luminescence was measured using plate reader (Perkin Elmer Victor 3V).
This example evaluates the toxicity of Myc-targeting PLPs in the PC-3 cancer cell line. • Example 3.1—Generation of Block and Statistical Copolymers. […] Cellular viability was assessed via the Cell Prolferation Assays protocol provided above. • Example 3.2—Results. […]

[3] = target: T2, b-HLH-LZ domain of Myc (Homo sapiens, UniProt P01106); experiment: Circular dichroism, dimerization with Myc b-HLH-LZ; type: binding; conditions: 1 μM PLP plus 5 μM bHlH
T2 construct: dimerize with either the b-HLH-LZ domain of Myc or full length Max
T2 sequence (P01106 368-454 limits assumed): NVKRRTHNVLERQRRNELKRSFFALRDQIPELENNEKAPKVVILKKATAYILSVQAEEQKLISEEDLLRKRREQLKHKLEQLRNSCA
Protocol: (§3) Circular Dichroism (CD) Spectroscopy: CD spectra were obtained on a JASCO J-815 spectrometer equipped with a Peltier sample holder for temperature control. Polymer samples were dissolved in buffered solvent to concentrations of approximately 1 μM, and placed into a 1 cm quartz cuvette (Hellma). Protein samples were measured at 5 μM. All samples were equilibrated at room temperature for at least thirty minutes prior to measurement, with mixtures (i.e. protein and polymer combinations) being generally equilibrated for 12 hours prior to measurement. Spectra were obtained using a scan speed of 10 nm/min, using a 1 nm bandwidth, 4 sec response time, and with three accumulations. Background spectra of solvent were obtained prior to measurement of the sample solutions, and subtracted from the sample spectra using JASCO Spectra Analysis. For melting experiments, the temperature was varied between 2° and 91° C. with steps of 1° C./min, while measuring the ellipticity at 222 nm with a 2 nm bandwidth.
(§4) It has been previously reported (Blum et al., Kammeyer et al., and Berger et al., Mussel Adhesive-Inspired Proteomimetic Polymer, Journal of Am. Chem. Soc., 144, 4383-4392 (2022)) that peptide brush polymers with a DP around 15 synthesized in a similar manner maintain payload bioactivity and readily enter cells. As such, initial HYDRAC designs revolved around this molecular size range. […]

[4] = target: full length Max (Homo sapiens, UniProt P61244); experiment: Circular dichroism, binding to Max; conditions: 1 μM PLP plus 5 μM Max
Chain of full length Max (P61244 whole entry): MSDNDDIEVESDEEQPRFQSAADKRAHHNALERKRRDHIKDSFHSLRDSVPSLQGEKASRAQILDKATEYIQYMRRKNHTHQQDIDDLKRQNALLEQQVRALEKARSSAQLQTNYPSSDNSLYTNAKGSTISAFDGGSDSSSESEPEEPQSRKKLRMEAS
Protocol: as §3, §4

[5] = test system: PC-12 Pheochromocytoma (which lack the Myc dimerization partner Max) cell lines; experiment: PC-12 cell viability; type: cell-based; conditions: treated for 3 days, FIG. 5A
Protocol: as §1, §2
(§5) This example provides data supporting toxicity of cancer cells in vitro after treatment with Myc-targeted PLPs. […] Cells were treated with PLP 5.2 for 3 days and cellular viability was recorded. […]

[6] = target: T3, Myc protein from PC-3 cell lysates (Homo sapiens, UniProt P01106); experiment: In vitro pull down assay with biotin-terminated PLPs; type: binding; conditions: PC-3 cell lysate, 10 μM or 2 μM biotinylated PLPs, FIG. 5B
T3 construct: Degradation of endogenous Myc protein in PC-3 cells was explored; endogenous in cells; host or cells: PC-3
T3 sequence (P01106 whole entry): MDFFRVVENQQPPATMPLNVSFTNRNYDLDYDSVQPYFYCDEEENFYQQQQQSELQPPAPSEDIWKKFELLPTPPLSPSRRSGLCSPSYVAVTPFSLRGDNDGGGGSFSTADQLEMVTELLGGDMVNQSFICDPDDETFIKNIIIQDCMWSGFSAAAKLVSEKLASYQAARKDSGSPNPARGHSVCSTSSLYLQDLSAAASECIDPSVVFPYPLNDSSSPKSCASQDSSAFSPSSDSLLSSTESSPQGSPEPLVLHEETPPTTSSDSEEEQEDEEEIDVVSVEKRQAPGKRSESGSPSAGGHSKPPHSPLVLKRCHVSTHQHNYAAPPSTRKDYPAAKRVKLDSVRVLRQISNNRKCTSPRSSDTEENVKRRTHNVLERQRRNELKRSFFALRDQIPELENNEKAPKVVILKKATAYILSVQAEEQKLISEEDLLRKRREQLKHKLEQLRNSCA
Protocol: In vitro Pull Down Assay: To confirm PLP direct binding to endogenous Myc protein in cell lysate complex, biotin conjugated PLP was synthesized. Collected PC-3 cell pellet (2 million cells per pulldown condition) was suspended in 300 μL pulldown lysis buffer (pH 7.4 50 mM Tris-HCl, 150 mM NaCl, 1 mM EDTA, 0.1% IGEPAL nonionic detergent+1× Halt protease/phosphatase inhibitor cocktail) and lysed by repeat (3×) freeze-thawing in liquid nitrogen. The lysed cell pellets were spun at 4° C. for 15 minutes at 15,000 rpm on a Eppendorf 5424R centrifuge. The collected supernatants were pre-cleared with Pierce streptavidin magnetic beads (Thermo, 88817) for 1 hr at 4° C. For Examples 7 and 10, around 300 μg was applied to each sample and incubated with 5 μM of HYDRAC, scrambled HYDRAC, 10 μM of H1 homopolymer, scrambled H1 homopolymer or D-Biotin on a rotator over night at 4° C. […]
It has been previously reported (Blum et al., Kammeyer et al., and Berger et al., Mussel Adhesive-Inspired Proteomimetic Polymer, Journal of Am. Chem. Soc., 144, 4383-4392 (2022)) that peptide brush polymers with a DP around 15 synthesized in a similar manner maintain payload bioactivity and readily enter cells. […]
as §5

[7] = target: endogenous Myc protein of PC-3 cells (in PC-3 cell lysate or in the cells) (UniProt P01106 1-454, limits assumed); experiment: cell-based or functional assay
Chain of endogenous Myc protein of PC-3 cells (in PC-3 cell lysate or in the cells) (P01106 whole entry): as above

Molecule: Cn1nc(C(F)(F)F)cc1-c1ccc(OCc2ccc(Cl)cc2)c(-c2ccc(Cl)c(C(F)(F)F)c2)c1O [MYCi975]
- MYC^T58A protein level [1]: only minor changes in mutant MYC levels

Molecule: NELKRAFAALRDQI-NH2 [unpolymerized H1 peptide, NELKRAFAALRDQI, reference compound]
- IC50 [2]: 700 µM

Molecule: H16-stat-RRRG7 (peptide 1 NELKRAFAALRDQI) [H1-R PLP]
- heterodimerization with Myc b-HLH-LZ (CD) [3]: selective Myc/HYDRAC heterodimerization in the low micromolar range
- Max binding (CD) [4]: limited Max/HYDRAC binding

Molecule: H17-stat-RRRG6 (peptide 1 NELKRAFAALRDQI) [PLP 5.2]
- IC50 [5]: 10.2 µM
- Myc pull down [6]: capable of direct endogenous binding to Myc protein

B1: PLP 5.2, H17-stat-RRRG6 (Example 9.4, FIG. 5A) (other)
peptide 1: {norbornene-Ahx}-NELKRAFAALRDQI-NH2
peptide 2: {norbornene-Ahx}-RRRG-NH2
modifications: also: polymerised through N-terminal norbornene by ROMP into polymer backbone, statistical copolymer of both peptides
- IC50 of PC-3 cell viability after 3 days of treatment (CTGlo) [7]: 0.49 µM
